Assay results taken from publication PMC11097922.

Biological target: 220 kDa ankyrin-B-GFP
Test: proximity ligation

Substance: NaV1.2 II-III loop-3xHA (wild type) (from UniProt Q99250 991-1211) (domain or fragment)
- PLA signal: 11.6 a.u.
